Experimental data published in patent US20150344570A1 (published 2015).

T1: FcγRIIb extracellular domain with C-terminal His tag (human, UniProt P31994 43-217)
T1 construct: extracellular domain; expressed in FreeStyle293 cells; analyte in Biacore; also called FcgRIIb; 2b
T1 sequence (looked up): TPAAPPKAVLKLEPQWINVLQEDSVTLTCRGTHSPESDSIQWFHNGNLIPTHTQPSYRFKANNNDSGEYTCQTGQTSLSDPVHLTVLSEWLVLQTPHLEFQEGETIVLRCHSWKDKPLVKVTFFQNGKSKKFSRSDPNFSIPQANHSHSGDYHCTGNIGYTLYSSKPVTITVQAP

B1: GpH7-A5/GpH7-B3 variant K326_12R/GpL16-k0 (antibody, human IgG1, kappa)
heavy 1: not shown
heavy 2: not shown
light: DIVMTQSPLSLPVTPGEPASISCQASESLVHSNRNTYLHWYLQKPGQSPQLLIYKVSNRFSGVPDRFSGSGSGTDFTLKISRVEAEDVGVYYCSQNTHVPPTFGQGTKVEIERTVAAPSVFIFPPSDEQLKSGTASVVCLLNNFYPREAKVQWKVDNALQSGNSQESVTEQDSKDSTYSLSSTLTLSKADYEKHKVYACEVTHQGLSSPVTKSFNRGEC
notes: He Ab; IgG1, mutation in one H chain
B2: GpH7-A5/GpH7-B3 variant L234_03V/GpL16-k0 (antibody, human IgG1, kappa)
heavy 1: not shown
heavy 2: not shown
light: B1 light
notes: also called He Ab L234_03V
B3: GpH7-A5/GpH7-B3 variant K326_15Y/GpL16-k0 (antibody, human IgG1, kappa)
heavy 1: not shown
heavy 2: not shown
light: B1 light
notes: also called He Ab K326_15Y
B4: GpH7-A5/GpH7-B3 variant L328_19Q/GpL16-k0 (antibody, human IgG1, kappa)
heavy 1: not shown
heavy 2: not shown
light: B1 light
notes: also called He Ab L328_19Q
B5: GpH7-A5/GpH7-B3 variant P238_06M/GpL16-k0 (antibody, human IgG1, kappa)
heavy 1: not shown
heavy 2: not shown
light: B1 light
notes: also called He Ab P238_06M
B6: GpH7-A5/GpH7-B3 variant Q295_15Y/GpL16-k0 (antibody, human IgG1, kappa)
heavy 1: not shown
heavy 2: not shown
light: B1 light
notes: also called He Ab Q295_15Y
B7: GpH7-A5/GpH7-B3 variant P271_15Y/GpL16-k0 (antibody, human IgG1, kappa)
heavy 1: not shown
heavy 2: not shown
light: B1 light
notes: also called He Ab P271_15Y
B8: GpH7-A5/GpH7-B3 variant L234_07I/GpL16-k0 (antibody, human IgG1, kappa)
heavy 1: not shown
heavy 2: not shown
light: B1 light
notes: also called He Ab L234_07I
B9: GpH7-A5/GpH7-B3 variant P238_04F/GpL16-k0 (antibody, human IgG1, kappa)
heavy 1: not shown
heavy 2: not shown
light: B1 light
notes: also called He Ab P238_04F
B10: GpH7-A5/GpH7-B3 variant K326_18N/GpL16-k0 (antibody, human IgG1, kappa)
heavy 1: not shown
heavy 2: not shown
light: B1 light
notes: also called He Ab K326_18N
B11: GpH7-A5/GpH7-B3 variant L234_04F/GpL16-k0 (antibody, human IgG1, kappa)
heavy 1: not shown
heavy 2: not shown
light: B1 light
notes: also called He Ab L234_04F
B12: GpH7-A5/GpH7-B3 variant K334_12R/GpL16-k0 (antibody, human IgG1, kappa)
heavy 1: not shown
heavy 2: not shown
light: B1 light
notes: also called He Ab K334_12R
B13: GpH7-A5/GpH7-B3 variant Q295_11K/GpL16-k0 (antibody, human IgG1, kappa)
heavy 1: not shown
heavy 2: not shown
light: B1 light
notes: also called He Ab Q295_11K
B14: GpH7-A5/GpH7-B3 variant L328_10E/GpL16-k0 (antibody, human IgG1, kappa)
heavy 1: not shown
heavy 2: not shown
light: B1 light
notes: also called He Ab L328_10E
B15: GpH7-A5/GpH7-B3 variant K334_10E/GpL16-k0 (antibody, human IgG1, kappa)
heavy 1: not shown
heavy 2: not shown
light: B1 light
notes: also called He Ab K334_10E
B16: GpH7-A5/GpH7-B3 variant L328_20W/GpL16-k0 (antibody, human IgG1, kappa)
heavy 1: not shown
heavy 2: not shown
light: B1 light
notes: also called He Ab L328_20W
B17: GpH7-A5/GpH7-B3 variant P271_02A/GpL16-k0 (antibody, human IgG1, kappa)
heavy 1: not shown
heavy 2: not shown
light: B1 light
notes: also called He Ab P271_02A
B18: GpH7-A5/GpH7-B3 variant K326_14T/GpL16-k0 (antibody, human IgG1, kappa)
heavy 1: not shown
heavy 2: not shown
light: B1 light
notes: also called He Ab K326_14T
B19: GpH7-A5/GpH7-B3 variant L328_03V/GpL16-k0 (antibody, human IgG1, kappa)
heavy 1: not shown
heavy 2: not shown
light: B1 light
notes: also called He Ab L328_03V
B20: GpH7-A5/GpH7-B3 variant K334_20W/GpL16-k0 (antibody, human IgG1, kappa)
heavy 1: not shown
heavy 2: not shown
light: B1 light
notes: also called He Ab K334_20W
B21: GpH7-A5/GpH7-B3 variant P271_03V/GpL16-k0 (antibody, human IgG1, kappa)
heavy 1: not shown
heavy 2: not shown
light: B1 light
notes: also called He Ab P271_03V
B22: GpH7-A5/GpH7-B3 variant K326_12R/GpL16-k0 (antibody, human IgG1, kappa)
heavy 1: not shown
heavy 2: not shown
light: B1 light
notes: also called He Ab K326_12R
B23: GpH7-A5/GpH7-B3 variant P271_16H/GpL16-k0 (antibody, human IgG1, kappa)
heavy 1: not shown
heavy 2: not shown
light: B1 light
notes: also called He Ab P271_16H
B24: GpH7-A5/GpH7-B3 variant P238_08L/GpL16-k0 (antibody, human IgG1, kappa)
heavy 1: not shown
heavy 2: not shown
light: B1 light
notes: also called He Ab P238_08L
B25: GpH7-A5/GpH7-B3 variant P271_14T/GpL16-k0 (antibody, human IgG1, kappa)
heavy 1: not shown
heavy 2: not shown
light: B1 light
notes: also called He Ab P271_14T
B26: GpH7-A5/GpH7-B3 variant Q295_13S/GpL16-k0 (antibody, human IgG1, kappa)
heavy 1: not shown
heavy 2: not shown
light: B1 light
notes: as for B1
B27: GpH7-A5/GpH7-B3 variant Q295_10E/GpL16-k0 (antibody, human IgG1, kappa)
heavy 1: not shown
heavy 2: not shown
light: B1 light
notes: as for B1
B28: GpH7-A5/GpH7-B3 variant Q295_09D/GpL16-k0 (antibody, human IgG1, kappa)
heavy 1: not shown
heavy 2: not shown
light: B1 light
notes: also called He Ab Q295_09D
B29: GpH7-A5/GpH7-B3 variant K326_16H/GpL16-k0 (antibody, human IgG1, kappa)
heavy 1: not shown
heavy 2: not shown
light: B1 light
notes: also called He Ab K326_16H
B30: GpH7-A5/GpH7-B3 variant L234_10E/GpL16-k0 (antibody, human IgG1, kappa)
heavy 1: not shown
heavy 2: not shown
light: B1 light
notes: also called He Ab L234_10E
B31: GpH7-A5/GpH7-B3 variant Q295_11K/GpL16-k0 (antibody, human IgG1, kappa)
heavy 1: not shown
heavy 2: not shown
light: B1 light
notes: as for B1
B32: GpH7-A5/GpH7-B3 variant Q295_09D/GpL16-k0 (antibody, human IgG1, kappa)
heavy 1: not shown
heavy 2: not shown
light: B1 light
notes: as for B1
B33: GpH7-A5/GpH7-B3 variant P238_03V/GpL16-k0 (antibody, human IgG1, kappa)
heavy 1: not shown
heavy 2: not shown
light: B1 light
notes: also called He Ab P238_03V
B34: GpH7-A5/GpH7-B3 variant K334_06M/GpL16-k0 (antibody, human IgG1, kappa)
heavy 1: not shown
heavy 2: not shown
light: B1 light
notes: also called He Ab K334_06M
B35: GpH7-A5/GpH7-B3 variant P238_15Y/GpL16-k0 (antibody, human IgG1, kappa)
heavy 1: not shown
heavy 2: not shown
light: B1 light
notes: also called He Ab P238_15Y
B36: GpH7-A5/GpH7-B3 variant P329_02A/GpL16-k0 (antibody, human IgG1, kappa)
heavy 1: not shown
heavy 2: not shown
light: B1 light
notes: also called He Ab P329_02A
B37: GpH7-A5/GpH7-B3 variant L234_06M/GpL16-k0 (antibody, human IgG1, kappa)
heavy 1: not shown
heavy 2: not shown
light: B1 light
notes: also called He Ab L234_06M
B38: GpH7-A5/GpH7-B3 variant Q295_12R/GpL16-k0 (antibody, human IgG1, kappa)
heavy 1: not shown
heavy 2: not shown
light: B1 light
notes: as for B1
B39: GpH7-A5/GpH7-B3 variant L328_14T/GpL16-k0 (antibody, human IgG1, kappa)
heavy 1: not shown
heavy 2: not shown
light: B1 light
notes: also called He Ab L328_14T
B40: GpH7-A5/GpH7-B3 variant P238_10E/GpL16-k0 (antibody, human IgG1, kappa)
heavy 1: not shown
heavy 2: not shown
light: B1 light
notes: also called He Ab P238_10E
B41: GpH7-A5/GpH7-B3 variant Q295_16H/GpL16-k0 (antibody, human IgG1, kappa)
heavy 1: not shown
heavy 2: not shown
light: B1 light
notes: also called He Ab Q295_16H
B42: GpH7-A5/GpH7-B3 variant L234_15Y/GpL16-k0 (antibody, human IgG1, kappa)
heavy 1: not shown
heavy 2: not shown
light: B1 light
notes: also called He Ab L234_15Y
B43: GpH7-A5/GpH7-B3 variant P329_01G/GpL16-k0 (antibody, human IgG1, kappa)
heavy 1: not shown
heavy 2: not shown
light: B1 light
notes: also called He Ab P329_01G

How the values were obtained:
[1] = biological target: T2, FcγRIa extracellular domain with C-terminal His tag (human, UniProt P12314 16-292); experiment: SPR (Biacore), captured antibody, FcγR as analyte; relative binding
T2 construct: extracellular domain; expressed in FreeStyle293 cells; analyte in Biacore; also called FcgRI; 1a

[2] = biological target: T1, FcγRIIb extracellular domain with …; experiment: as above
FcγRIa = biological target: T3, FcγRIa (human, UniProt P12314 16-292); experiment: SPR (Biacore); He Ab relative to HeCon Ab = 100
T3 construct: extracellular domain; also called FcgRI; 1a
Method: Analysis of interaction between objective antibody and the FcγR was carried out using Biacore T100 (GE Healthcare). HBS-EP+ (GE Healthcare) was used as the running buffer, and the measurement temperature was set to 25° C. Chips produced by immobilizing the antigen peptide by the amine coupling method to a Series S Sencor Chip CM5 (GE Healthcare), or alternatively, chips produced by allowing preliminarily biotinylated antigen peptides to interact with and immobilize onto a Series S Sensor Chip SA (certified) (GE Healthcare) were used. Antibodies of interest were captured onto an antigen peptide-immobilized chip, and allowed to interact to each FcγR diluted with running buffer. To regenerate and repeatedly use the chip, the antibodies captured on the chip were washed off by reacting 10 mM glycine-HCl, pH 1.5.

T2 sequence (P12314 16-292): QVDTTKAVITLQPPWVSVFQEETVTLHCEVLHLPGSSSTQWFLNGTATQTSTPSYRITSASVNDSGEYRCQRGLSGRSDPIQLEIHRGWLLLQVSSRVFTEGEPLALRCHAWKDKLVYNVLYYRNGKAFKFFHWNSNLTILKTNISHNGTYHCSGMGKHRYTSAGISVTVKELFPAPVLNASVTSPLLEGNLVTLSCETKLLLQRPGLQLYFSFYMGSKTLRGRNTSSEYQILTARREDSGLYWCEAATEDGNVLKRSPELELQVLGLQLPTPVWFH
T3 sequence (P12314 16-292): as above

Binder	He/Con_1a [1]	He/Con_2b [2]	He/Con_1a (FcγRIa)
B1	100 % of HeCon Ab (GpH7-A5/GpH7-B3/GpL16-k0 = 100)	89.2 % of HeCon Ab (GpH7-A5/GpH7-B3/GpL16-k0 = 100)	–
B2	–	–	104 % of control
B3	–	–	106 % of control
B4	–	–	101 % of control
B5	–	–	102 % of control
B6	–	–	102 % of control
B7	–	–	103 % of control
B8	–	–	103 % of control
B9	–	–	101 % of control
B10	–	–	105 % of control
B11	–	–	101 % of control
B12	–	–	104 % of control
B13	–	–	101 % of control
B14	–	–	101 % of control
B15	–	–	110 % of control
B16	–	–	103 % of control
B17	–	–	104 % of control
B18	–	–	104 % of control
B19	–	–	101 % of control
B20	–	–	106 % of control
B21	–	–	102 % of control
B22	–	–	100 % of control

Binder	He/Con_1a [1]	He/Con_2b [2]	He/Con_1a (FcγRIa)
B23	–	–	102 % of control
B24	–	–	101 % of control
B25	–	–	102 % of control
B26	102 % of HeCon Ab (GpH7-A5/GpH7-B3/GpL16-k0 = 100)	56.9 % of HeCon Ab (GpH7-A5/GpH7-B3/GpL16-k0 = 100)	–
B27	103 % of HeCon Ab (GpH7-A5/GpH7-B3/GpL16-k0 = 100)	94.8 % of HeCon Ab (GpH7-A5/GpH7-B3/GpL16-k0 = 100)	–
B28	–	–	100 % of control
B29	–	–	103 % of control
B30	–	–	100 % of control
B31	101 % of HeCon Ab (GpH7-A5/GpH7-B3/GpL16-k0 = 100)	70.4 % of HeCon Ab (GpH7-A5/GpH7-B3/GpL16-k0 = 100)	–
B32	100 % of HeCon Ab (GpH7-A5/GpH7-B3/GpL16-k0 = 100)	60.8 % of HeCon Ab (GpH7-A5/GpH7-B3/GpL16-k0 = 100)	–
B33	–	–	100 % of control
B34	–	–	105 % of control
B35	–	–	101 % of control
B36	–	–	102 % of control
B37	–	–	104 % of control
B38	100 % of HeCon Ab (GpH7-A5/GpH7-B3/GpL16-k0 = 100)	65.2 % of HeCon Ab (GpH7-A5/GpH7-B3/GpL16-k0 = 100)	–
B39	–	–	100 % of control
B40	–	–	102 % of control
B41	–	–	102 % of control
B42	–	–	100 % of control
B43	–	–	101 % of control
